Assay results reported in patent US20190233542A1 (WUXI BIOLOGICS IRELAND, published 2019).
Values belong to the binder of their own block, whether it stands above or below them.

What was measured:
[1] = molecular target: mutant human PCSK9 (D374Y) (human, UniProt Q8NBP7 31-692); experiment: cell-based or functional assay
[2] = molecular target: T1, human PCSK9 (Proprotein Convertase Subtilisin/Kexin type 9) (human, UniProt Q8NBP7 31-692, biotin label in the ELISA formats (site not stated)); experiment: cell-based or functional assay
[3] = molecular target: T1, human PCSK9 (Proprotein Convertase …); experiment: SPR
[4] = molecular target: T2, rhesus PCSK9 (rhesus, UniProt A8T666 31-692, limits assumed); experiment: SPR, Biacore T200, antibody captured, monkey PCSK9 as analyte
T2 construct: A rhesus PCSK9-His from Sino Biological is named only for the ELISA of Section 4.3.2; also called monkey PCSK9; rhesus PCSK9-His
Experimental: (§1) Antibody binding affinity to human and rhesus PCSK9 was detected by SPR assay using Biacore T200. Each antibody was captured on a Protein A or or anti-human IgG Fc antibody immobilized CM5 sensor chip (GE). Human or rhesus PCSK9 at different concentrations were injected over the sensor chip at a flow rate of 30 μL/min for an association phase of 180 s, followed by 1200 s dissociation. The chip was regenerated by 2 M MgCl₂ after each binding cycle.
(§2) The sensorgrams for blank surface and buffer channel were subtracted from the test sensorgrams. The experimental data was fitted by 1:1 model using Langmiur analysis. Molecular weight of 85 KDa was used to calculate the molar concentration of analyte.
(§3) Kinetic affinities of antibody leads were measured by SPR assay.

[5] = molecular target: T1, human PCSK9 (Proprotein Convertase …); experiment: binding ELISA on human PCSK9
[6] = molecular target: T3, human PCSK9-mFc-biotin (human, UniProt Q8NBP7 31-692, biotin label (site not stated)); experiment: competitive ELISA, blocking of PCSK9 binding to LDL-R
T3 construct: not shown: murine Fc (mFc) fused at the C-terminus

[7] = molecular target: T1, human PCSK9 (Proprotein Convertase …); experiment: SPR, Biacore T200, antibody captured, PCSK9 as analyte
Experimental: as §1, §2, §3

[8] = molecular target: T1, human PCSK9 (Proprotein Convertase …); experiment: SPR; remark: listed apart in the source
[9] = molecular target: T1, human PCSK9 (Proprotein Convertase …); experiment: cell-based or functional assay; remark: listed apart in the source
[10] = molecular target: T1, human PCSK9 (Proprotein Convertase …); experiment: SPR, Biacore T200, antibody captured, PCSK9 as analyte; remark: listed apart in the source
Experimental: as §1, §2

[11] = molecular target: T1, human PCSK9 (Proprotein Convertase …); experiment: ELISA on streptavidin-captured PCSK9-biotin
Experimental: Binding assay by ELISA: Plates (Nunc) were coated with Streptavidin at 1 μg/ml overnight at 4° C. After blocking and washing, 250 ng/ml PCSK9-biotin was added and incubated for 1 h. Then hybridoma supernatants were transferred to the plates and incubate at room temperature for 1 h. The plates were then washed and subsequently incubated with secondary antibody goat anti rat IgG1 HRP (Bethyl) and goat anti rat IgG2b HRP (Bethyl) for 45 min. After washing, TMB substrate was added and the interaction was stopped by 2M HCl. The absorbance at 450 nm was read using a microplate reader (Molecular Device).
The activities of reference antibodies 12H11.1.uIgG4K and 24B9.1.uIgG4L binding to human PCSK9 were confirmed by ELISA (FIG. 29), according to the method described in Section 2.4 Hybridoma screening of EXAMPLE 2.

[12] = molecular target: T1, human PCSK9 (Proprotein Convertase …); experiment: ELISA on biotin-labeled PCSK9 captured on streptavidin, antibody diluted from human serum after 0 to 14 days at 37 C
[13] = molecular target: T3, human PCSK9-mFc-biotin; experiment: competitive ELISA, blocking of PCSK9-mFc-biotin binding to coated LDL-R
Experimental: Blocking assay by ELISA: Plates (Nunc) were coated with LDL-R overnight at 4° C. Hybridoma supernatants were mixed with 250 ng/ml PCSK9-mFc-biotin and incubated at 4° C. overnight. After blocking and washing, the mixture were added to the plates and incubated for 1 h. The plates were then washed and subsequently incubated with streptavidin- HRP. After washing, TMB substrate was added and the interaction was stopped by 2M HCl. The absorbance at 450 nm was read using a microplate reader (Molecular Device).
The activities of reference antibodies 12H11.1.uIgG4K and 24B9.1.uIgG4L to blocking the binding of PCSK9 to LDLR were evaluated by competitive ELISA (FIG. 30) according to the methods described in Section 2.4 Hybridoma screening of EXAMPLE 2.

[14] = molecular target: T1, human PCSK9 (Proprotein Convertase …); experiment: cell-based or functional assay; remark: listed apart in the source

B1: 40409 (hIgG2) (antibody, V domains shown)
VH: QLNLQQSGPGLVNPSQTLSLTCAISGGSVSSNSAAWNWIRQSPSRGLEWLGRIYSRSKWYHDYAVSVKGRITINPDTSKNQFFLQLNSVTPEDTAVYYCARDWETIIWGDDGPNYYNYGLDVWGQGTTVTVSS
VL: DIQMTQSPSSLSASVGDRVTITCRASQGIRNDLGWYQQKPGKAPKRLIYGASSLQSGVPSRFSGSGSGTEFTLTISSLQPEDFATYYCLQHNNYLWTFGQGTKVEIK
- IC50 of LDL-uptake restoration, HepG2 cells, PCSK9 (D374Y) [1]: 2.3 nM
- IC50 of LDL-uptake restoration, Huh-7 cells, PCSK9 (D374Y) [1]: 2.7 nM
- IC50 of LDL-uptake restoration, HepG2 cells, PCSK9 (WT) [2]: 38.3 nM
- IC50 of LDL-uptake restoration, Huh-7 cells, PCSK9 (WT) [2]: 63.7 nM

B4: 19.3.8-uAb1-IgG4L (antibody, V domains shown)
VH: QVQLVQSGAEVKKPGASVKVSCKASGYTFTGYYINWVRQAPGQGLEWMGRINPNSGGTNYAQKFQGRVTMTRDTSINTAYMELSRLRSDDTAVYFCASWEGTVTTWDFYYYYGMDVWGQGTTVTVSS
VL: QSALTQPASVSGSPGQSITISCTGTSSDVDTYNYVSWYQHHPGKAPKLIIFDVSNRPSGVSNRFSGSKSGNTASLTISGLQAEDEADYYCSSYTSSSTLVVFGGGTKLTVL
notes: human IgG4 constant region, lambda light chain
- Kd [4]: 7.16 nM
- koff [4]: 0.00441 s⁻¹
- kon [4]: 616000 M⁻¹ s⁻¹
- IC50, LDL-uptake assay in HepG2 [9]: 115 nM
- EC50 [5]: 0.13 nM
- IC50 [6]: 2 nM
- Kd [7]: 17.5 nM
- koff [7]: 0.000271 s⁻¹
- kon [7]: 15400 M⁻¹ s⁻¹

B5: 18.156.8 (hIgG4) (antibody, V domains shown)
VH: QVQLVESGGGVVQPGRSLRLSCAASGFTFSSYGMHWVRQAPGKGLEWMAVIWYDGTNKYYADSVKGRFTISRDNSKNTVYLQMNSLRAEDTAVYYCAREKGLDWGQGTLVTVSS
VL: not shown
notes: human IgG4 constant region, kappa light chain
- Kd [10]: 0.0688 nM
- koff [10]: 4.47e-05 s⁻¹
- kon [10]: 649000 M⁻¹ s⁻¹
- EC50 [11]: 0.034 nM
- Kd [4]: 0.0371 nM
- koff [4]: 3.19e-05 s⁻¹
- kon [4]: 861000 M⁻¹ s⁻¹
- EC50 [5]: 0.028 nM
- EC50 (read off the curve) [12]: ~0.1 nM
- IC50 [6]: 1.22 nM
- IC50 of LDL-uptake restoration, HepG2 cells, PCSK9 (D374Y) [1]: 10.8 nM
- IC50 of LDL-uptake restoration, Huh-7 cells, PCSK9 (D374Y) [1]: 5.2 nM
- IC50 of LDL-uptake restoration, HepG2 cells, PCSK9 (WT) [2]: 65.1 nM
- IC50 of LDL-uptake restoration, Huh-7 cells, PCSK9 (WT) [2]: 76.1 nM
- Kd [7]: 0.589 nM
- koff [7]: 0.000146 s⁻¹
- kon [7]: 248000 M⁻¹ s⁻¹
- IC50 [13]: 0.97 nM
- EC50, LDL-uptake assay in HepG2 [14]: 156 nM

B6: 17.72.3-uAb2-IgG4K (antibody, V domains shown)
VH: QVQLQESGPGLVKPSGTLSLTCAVSGGSIRSYNWWSWVRQPPGEGLEWIGEIHHSGTTNYNPSLKSRVTISVDKSKNQFSLKLSSVTAADTAVYYCARDYSGSYFDYWGQGTLVTVSS
VL: EVVLTQSPATLSLSPGERATLSCRTSQSLSSYVAWSQQKPGQAPRLLIYDASKRATGVPARFSGSGSGTDFTLTISNLEPEDFAVYYCHQRGNWMSSFGQGTKLEIK
notes: as for B5
- Kd [4]: 20.5 nM
- koff [4]: 0.00226 s⁻¹
- kon [4]: 110000 M⁻¹ s⁻¹
- IC50, LDL-uptake assay in HepG2 [9]: 106 nM
- EC50 [5]: 0.036 nM
- IC50 [6]: 1.67 nM
- Kd [7]: 3.42 nM
- koff [7]: 4.68e-05 s⁻¹
- kon [7]: 13700 M⁻¹ s⁻¹

The remaining binders from weak to strong by Kd [4], led by results:

- Kd [4]: 0.687 nM
- koff [4]: 0.00031 s⁻¹
- kon [4]: 452000 M⁻¹ s⁻¹
- IC50, LDL-uptake assay in HepG2 [9]: 80 nM
- EC50 [5]: 0.031 nM
- IC50 [6]: 1.12 nM
- Kd [7]: 0.25 nM
- koff [7]: 8.09e-05 s⁻¹
- kon [7]: 324000 M⁻¹ s⁻¹
B3: 15.14.2-uAb-IgG4L (antibody, V domains shown)
VH: EVQMLESGGGLVQPGGSLRLSCAVSGFTFSRFAMSWVRQAPGKGLDWVSSISDNAGRTYFADSVKGRFTISRDNSKNTLYLQMNSLRADDTAVYYCAKLSNWGPYGMDVWGQGTTVTVSS
VL: QSALTQPPSASGSPGQSVTISCTGTSSDVGYYNYVSWYQQHPGEAPKLMIYEVNKRPSGVPDRFSGSKSGSTASLTVSGLQAVDEADYYCSSYAGSKNFVVFGGGTKLTVL
notes: as for B4

- Kd [3]: 0.0523 nM
- koff [3]: 9.05e-05 s⁻¹
- kon [3]: 1.73e+06 M⁻¹ s⁻¹
- Kd [4]: 0.413 nM
- koff [4]: 0.000939 s⁻¹
- kon [4]: 2.27e+06 M⁻¹ s⁻¹
- EC50 [5]: 0.024 nM
- IC50 [6]: 1.75 nM
- Kd [7]: 0.0523 nM
- koff [7]: 9.05e-05 s⁻¹
- kon [7]: 1.73e+06 M⁻¹ s⁻¹
- fold further affinity improvement (over B4G2) [8]: 2 fold
- fold higher affinity compared to BMK.115 [8]: 2 fold
B2: 40409 (hIgG4) (antibody, V domains shown)
VH: B1 VH
VL: B1 VL
notes: human IgG4 constant region
